Here are results for 3 molecules from patent US10183971B2, “SAA-domain-specific antibodies and peptide antagonists and use thereof to treat inflammatory diseases” (The Feinstein Institute For Medical Research, priority 2013, dated 2019).

Like-named read-outs stand apart in the source and are kept apart here.

In experiment [1] the test system is Balb/C mice. The experiment is classed as in vivo. Conditions: LPS 5 mg/kg i.p. in combination with SAA 0.8 mg/kg.
For experiment [2], the system named is murine macrophages. Description: HMGB1 release in murine macrophage cultures (Western blots). The experiment is classed as cell-based. To be noted: 1-10 μg/ml, 16 h. As to the method:
(§1) FIG. 4A-4C. […] A, Amino acid sequence of human and murine SAAs (SEQ ID NOS:19-23, top to bottom). B, Western blots of human SAA and SAA1. Note that the anti-HMGB1 IgGs paradoxically cross-reacted with huSAA, but not huSAA1. […] Murine macrophages and human monocytes were stimulated with huSAA or huSAA1 for 16 h, and extracellular HMGB 1 levels were determined by Western blots.
(§2) Overall, there is a >95-98% amino acid sequence homology between members of the human or murine SAA families, and a >75% identity across human and murine families (FIG. 4A), making it seemingly difficult to distinguish between different SAA members by immunoassays. Indeed, the polyclonal antibodies raised against human SAA cross-reacted with both human SAA and SAA1 on Western blots (FIG. 4B, bottom panel). Intriguingly, our rabbit anti-HMGB1 IgGs “specifically” recognized human SAA, but not SAA1, on Western blots (FIG. 4B), implicating a possibility of selectively immunodetecting human SAA with appropriate antibodies.
A general note: In western blotting, separated proteins are transferred to a membrane and probed.

Experiment [3] concerns human monocytes. Briefly: HMGB1 release in human monocyte cultures (Western blots). The experiment is classed as cell-based. To be noted: 1-10 μg/ml, 16 h. The protocol:
as §1, §2

The subject of experiment [4] is HMGB1 release. Description: HMGB1 release in vitro by inflammatory mediators (data not shown). Format: cell-based.

B1: human SAA: human serum amyloid A, recombinant protein (Cat. No. 300-13, PeproTech) (protein)
chain: RSFFSFLGEAFDGARDMWRAYSDMREANYIGSDKYFHARGNYDAAKRGPGGAWAAEVITDARENIQRFFGHGAEDSLADQAANEWGRSGKDPNHFRPAGLPEKY
On to B1, for which the results for the “effect on LPS-induced animal lethality” value in experiment [1] (listed as Recombinant SAA protein) and in experiment [1] (listed as SAA) were “dramatically exacerbated” and “exacerbated LPS-induced animal lethality”, respectively. Also, the “induction of HMGB1 release” value is “effectively induced HMGB1 release” in experiment [2], “induced HMGB1 release” in experiment [2] (listed as HuSAA), “effectively induced HMGB1 release” in experiment [3] and “induced HMGB1 release” in experiment [3] (listed as HuSAA).

B2: human SAA1: human SAA1 (Cat. No. 300-53, PeproTech) (protein)
chain: B1 chain
Regarding B2, the “induction of HMGB1 release” value in experiment [2] and in experiment [3] was “barely triggered HMGB1 release” throughout.

B3: KC: inflammatory mediator, sepsis surrogate marker (protein, UniProt P12850 25-96, looked up)
Growth-regulated alpha protein: APIANELRCQCLQTMAGIHLKNIQSLKVLPSGPHCTQTEVIATLKNGREACLDPEAPLVQKIVQKMLKGVPK
Regarding B3, the “induction of HMGB1 release in vitro” value in experiment [4] was “unable to induce HMGB1 release”.
